Experimental data as given in article PMC4962041, “Human DNA-Damage-Inducible 2 Protein Is Structurally and Functionally Distinct from Its Yeast Ortholog” (Scientific Reports, 2016).
No end group written: not given here.

Columns and labels:
human ubiquitin [1] = target: T1, human ubiquitin (human, UniProt P0CG48 1-76); experiment: NMR titration; 15N-labelled UBQ (0.1 mM) with unlabelled peptide; 15N/1H-HSQC chemical shift perturbation; 50 mM sodium phosphate, pH 6.0 and pH 7.4, 25 °C; 1:1 model for the Kd; settings: both partners purified
T1 construct: human ubiquitin, the cut product of the ubiquitin precursors; shifts were mapped on PDB 1D3Z; also called UBQ; mono-UBQ; source: 15N- or 15N/13C-labelled where observed by NMR

[2] = target: the molecule itself; experiment: SAXS; His-tagged HDD-RVP at 5 and 2.5 mg/ml in 25 mM Tris/HCl, 75 mM NaCl, 5% glycerol, 1 mM DTT, pH 7.4; molecular mass from the invariant Vc
[3] = target: the molecule itself; experiment: crystal structure; hDdi2 RVP (212-360), 1.9 Å, PDB 4RGH; hanging drop, 0.2 M ammonium acetate, 0.1 M Bis-Tris pH 5.5, 25% PEG 3350
human ubiquitin [4] = target: T1, human ubiquitin; experiment: NMR titration; 15N-labelled hDdi2 UBL (0.05 mM) with a 1- to 10-fold molar excess of UBQ; 50 mM sodium phosphate, pH 7.4, 25 °C; 1:1 model for the Kd; settings: both partners purified

B1: hDdi2-UIM peptide (peptide)
peptide: EEIADQELAEALQKSAEDAE-NH2
notes: Dissolved in DMSO before use; also called C-terminal hDdi2 UIM peptide; source: synthetic peptide (solid phase, HPLC purified)
Kd (human ubiquitin [1]): 2.2 to 3.2 mM

B2: hDdi2 HDD-RVP (residues 116-360) (domain or fragment, human, UniProt Q5TDH0 116-360, looked up)
chain: QQSHSSPGEITSSPQGLDNPALLRDMLLANPHELSLLKERNPPLAEALLSGDLEKFSRVLVEQQQDRARREQERIRLFSADPFDLEAQAKIEEDIRQQNIEENMTIAMEEAPESFGQVVMLYINCKVNGHPVKAFVDSGAQMTIMSQACAERCNIMRLVDRRWAGIAKGVGTQKIIGRVHLAQVQIEGDFLPCSFSILEEQPMDMLLGLDMLKRHQCSIDLKKNVLVIGTTGSQTTFLPEGELPE
notes: human DNA-damage-inducible 2 protein (Ddi homolog 2, 399 amino acids), residues 116-360 (lacking both UBL and UIM); Called His-tagged for the SAXS experiment; dimer by SAXS; not shown: His tag, N-terminal, kept
stoichiometry N [2]: 2

B3: hDdi2 RVP domain (residues 212-360) (domain or fragment)
chain: not shown
notes: Gln232 to Pro359 visible in the structure
binding result [3]: binds

B4: hDdi2 UBL domain (residues 1-76) (domain or fragment, human, UniProt Q5TDH0 1-76, looked up)
chain: MLLTVYCVRRDLSEVTFSLQVDADFELHNFRALCELESGIPAAESQIVYAERPLTDNHRSLASYGLKDGDVVILRQ
notes: human DNA-damage-inducible 2 protein (Ddi homolog 2, 399 amino acids), residues 1-76: ubiquitin-like domain; also called N-terminal UBL domain of hDdi2; not shown: His tag, N-terminal, kept
Kd (human ubiquitin [4]): 420 to 1100 µM
